For three substances, stoichiometry N results are on record in paper PMC3631186.

Assay [1] concerns the target HIV-1 p24 capsid protein from the BMJ4 strain (recombinant, full-length) (HIV-1 strain BMJ4 (subtype C)). Description: AUC; sedimentation velocity, 0.9 mg/ml in phosphate-buffered saline pH 7.4, 20°C, 45,000 rpm; c(s) scaled to c(M).
Assay [2] has the same target. Description: SEC; analytic gel filtration, G5000PWxl column in phosphate-buffered saline pH 7.4, 0.5 ml/min, Agilent1200 HPLC. A general note: SEC sorts molecules by how far they enter the pores of the column.
For assay [3] the target is unchanged. Description: non-reducing SDS-PAGE; recombinant p24 proteins; loading buffer with 0.1% SDS, no BME, sample not boiled; called native gel in the text.
Assay [4] shares this target. Description: crystal structure.
Assay [5] deals with p24 of HIV-1 MJ4 virus (from the infectious clone) (HIV-1 strain BMJ4 (subtype C)). Description: non-reducing SDS-PAGE.
The target of assay [6] is C-terminal domain (CTD) of BMJ4 p24 (HIV-1 strain BMJ4 (subtype C)). Description: non-reducing SDS-PAGE; C-terminal domain of BMJ4 p24 in non-reducing condition.

A word on the stoichiometry N: it is a count of units in the complex or per binding partner.

As for “HIV-1 p24 capsid protein from the BMJ4 strain (recombinant, full-length) (natural protein)”, the stoichiometry N in assay [1], in assay [2], in assay [3] and in assay [4] was 2 throughout.

On to “p24 of HIV-1 MJ4 virus (from the infectious clone) (natural protein)”, for which the stoichiometry N in assay [5] is 2.

For “C-terminal domain (CTD) of BMJ4 p24 (domain or fragment)”, in assay [6], the stoichiometry N is 2.
